B1: library; a variant is named by its letters at N, in order (parent)
chain: GCUGUCACCGGUGCUUGGUACGUUAUAUUCAGCCGGUCUGAUGAGUCUNNNNNNAGACGAAACAGC

± gives the standard deviation of the averaged measurements.

The variants in series [1] derive from B1. As to the kind of experiment: normalized RNA/DNA level without ligand (relative to sTRSVctl = 100) (log10 (% of sTRSVctl)); HEK293T overexpressing SLC46A1; higher = less ribozyme self-cleavage, higher mRNA level. As to conditions: without (6R,S)-folinic acid; ligand present: no. In short, it runs like this:
(§1)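 Total RNA, extracted with EDTA 72 h after HEK293T cells were transfected with 4 µg per 6-well well of reporter-linked ribozyme switch library plasmids, was reverse-transcribed, amplified, barcoded and sequenced. Ligand, if used, was added 1 h before transfection. RNA level was derived from RNA reads divided by DNA reads and normalized to a spiked-in non-cleaving sequence or to the top sequences. This was multiplied by 100 and log10-transformed, with the top set of 25 sequences and a ≥100 DNA read minimum.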

Variants of B1 are the subject of series [2]. The experiment in a line: normalized RNA/DNA level with ligand (relative to sTRSVctl = 100) (log10 (% of sTRSVctl)); HEK293T overexpressing SLC46A1; ligand concentration (+) RNA-Seq: 6 mM; higher = less ribozyme self-cleavage, higher mRNA level. As to conditions: with (6R,S)-folinic acid; ligand present: yes. In short, it runs like this:
as §1

Series [3] covers variants of B1. The experiment in a line: FACS-Seq fitted mean relative fluorescence mCherry/BFP without ligand (log10 relative fluorescence); HEK293T overexpressing SLC46A1; higher = higher reporter protein expression. As to conditions: without (6R,S)-folinic acid; ligand present: no. In short, it runs like this:
(§2)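 Cells were sorted into 6 bins on the mCherry/BFP ratio after 48 h with or without ligand. These were enriched HEK293T cells transduced by lentivirus with a ribozyme-switch mCherry reporter plus an EF1α-BFP marker. Fluorescence was obtained by fitting a normal distribution to sequencing-derived bin counts. Counts came from MiSeq sequencing of PCR-amplified, barcoded genomic DNA, binned by log10(mCherry/BFP), with means scaled to five spiked-in control ribozymes.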

The variants in series [4] derive from B1. The experiment in a line: FACS-Seq fitted mean relative fluorescence mCherry/BFP with ligand (log10 relative fluorescence); HEK293T overexpressing SLC46A1; ligand concentration (+) FACS-Seq: 6 mM; higher = higher reporter protein expression. As to conditions: with (6R,S)-folinic acid; ligand present: yes. In short, it runs like this: as §2

CAAGCC: in series [1], the “normalized RNA/DNA level without ligand (log10)” value was 2.099 ± 0.01. The “normalized RNA/DNA level with ligand (log10)” value in series [2] came to 2.03 ± 0.046.

CAAGCG: in series [1], the “normalized RNA/DNA level without ligand (log10)” value amounted to 2.057 ± 0.015. Besides, the “normalized RNA/DNA level with ligand (log10)” value in series [2] turned out to be 2.062 ± 0.0093.

Regarding UAAGGU, in series [1], the “normalized RNA/DNA level without ligand (log10)” value worked out at 1.844 ± 0.0031. Besides, the “normalized RNA/DNA level with ligand (log10)” value in series [2] worked out at 1.967 ± 0.018.

In the case of UAAGGC, in series [1], the “normalized RNA/DNA level without ligand (log10)” value worked out at 1.98 ± 0.023. The “normalized RNA/DNA level with ligand (log10)” value in series [2] was 2.01 ± 0.043.

As for UUUGAU, the entries for the “FACS-Seq fitted mean (log10)” value in series [3] and in series [4] were 0.135 ± 0.022 and 0.206 ± 0.34, respectively. For the same variant, the “normalized RNA/DNA level without ligand (log10)” value in series [1] worked out at 1.9541 ± 0.0016. In addition, the “normalized RNA/DNA level with ligand (log10)” value in series [2] turned out to be 1.99 ± 0.065.

For the variant UUUGAG, the results for the “FACS-Seq fitted mean (log10)” value in series [3] and in series [4] were -0.104 ± 0.12 and 0.41 ± 0.25, respectively. The “normalized RNA/DNA level without ligand (log10)” value in series [1] came out at 1.735 ± 0.0097. Further, the “normalized RNA/DNA level with ligand (log10)” value in series [2] stood at 1.98 ± 0.033.

On to AAAUUA, for which the “normalized RNA/DNA level without ligand (log10)” value in series [1] is 1.97 ± 0.012. The “normalized RNA/DNA level with ligand (log10)” value in series [2] turned out to be 1.99 ± 0.03.

As to UAACUC, the “normalized RNA/DNA level without ligand (log10)” value in series [1] was 2.046 ± 0.0055. In series [2], the “normalized RNA/DNA level with ligand (log10)” value turned out to be 2.03 ± 0.045.

As for UACAGC, the “normalized RNA/DNA level without ligand (log10)” value in series [1] was found to be 1.991 ± 0.0074. Moreover, the “normalized RNA/DNA level with ligand (log10)” value in series [2] stood at 2.02 ± 0.05.

On to GAAUAG, for which the “normalized RNA/DNA level without ligand (log10)” value in series [1] was determined as 1.9357 ± 0.0015. Also, the “normalized RNA/DNA level with ligand (log10)” value in series [2] stood at 2.01 ± 0.042.

For the variant GAAUAU, in series [1], the “normalized RNA/DNA level without ligand (log10)” value turned out to be 2.038 ± 0.015. Further, in series [2], the “normalized RNA/DNA level with ligand (log10)” value came out at 2.02 ± 0.051.

Take GAAGGA: in series [1], the “normalized RNA/DNA level without ligand (log10)” value was 1.952 ± 0.0097. Moreover, the “normalized RNA/DNA level with ligand (log10)” value in series [2] worked out at 2.009 ± 0.014.

For the variant GAAGGG, the “normalized RNA/DNA level without ligand (log10)” value in series [1] was found to be 1.87 ± 0.00046. Moreover, in series [2], the “normalized RNA/DNA level with ligand (log10)” value was 2.03 ± 0.043.

For the variant GAAGGU, the “normalized RNA/DNA level without ligand (log10)” value in series [1] stood at 1.974 ± 0.0097. In addition, the “normalized RNA/DNA level with ligand (log10)” value in series [2] stood at 2.02 ± 0.043.

For GACAAG, the “normalized RNA/DNA level without ligand (log10)” value in series [1] is 1.9442 ± 0.00015. The “normalized RNA/DNA level with ligand (log10)” value in series [2] turned out to be 2.008 ± 0.02.

As to GACAAU, the “normalized RNA/DNA level without ligand (log10)” value in series [1] came out at 1.967 ± 0.012. For the same variant, the “normalized RNA/DNA level with ligand (log10)” value in series [2] was determined as 1.99 ± 0.045.

For the variant GACACU, the “normalized RNA/DNA level without ligand (log10)” value in series [1] came out at 2.032 ± 0.015. In addition, the “normalized RNA/DNA level with ligand (log10)” value in series [2] came out at 2.046 ± 0.018.

With GACACG, the “normalized RNA/DNA level without ligand (log10)” value in series [1] is 1.971 ± 0.019. For the same variant, the “normalized RNA/DNA level with ligand (log10)” value in series [2] was determined as 1.98 ± 0.034.

As for GACACC, the “normalized RNA/DNA level without ligand (log10)” value in series [1] worked out at 2.026 ± 0.0065. The “normalized RNA/DNA level with ligand (log10)” value in series [2] came to 1.98 ± 0.038.

Turning to CUUGGC, the “FACS-Seq fitted mean (log10)” value in series [3] worked out at 0.556 ± 0.084; in series [4], 0.651 ± 0.35. The “normalized RNA/DNA level without ligand (log10)” value in series [1] is 2.062 ± 0.0022. Also, in series [2], the “normalized RNA/DNA level with ligand (log10)” value turned out to be 2.04 ± 0.037.

CUUGGA: the figures for the “FACS-Seq fitted mean (log10)” value in series [3] and in series [4] were 0.658 ± 0.053 and 0.547 ± 0.15, respectively. Besides, in series [1], the “normalized RNA/DNA level without ligand (log10)” value worked out at 2.001 ± 0.019. Further, the “normalized RNA/DNA level with ligand (log10)” value in series [2] was found to be 1.99 ± 0.025.

CUUGGG: the “FACS-Seq fitted mean (log10)” value is 0.49 ± 0.05 in series [3] and 0.119 ± 0.14 in series [4]. Besides, in series [1], the “normalized RNA/DNA level without ligand (log10)” value turned out to be 1.9697 ± 0.0016. Besides, the “normalized RNA/DNA level with ligand (log10)” value in series [2] came out at 2.04 ± 0.03.

Take CAAUGU: the “normalized RNA/DNA level without ligand (log10)” value in series [1] was determined as 1.981 ± 0.0089. In addition, in series [2], the “normalized RNA/DNA level with ligand (log10)” value amounted to 1.98 ± 0.044.

In the case of CAAUGG, the “normalized RNA/DNA level without ligand (log10)” value in series [1] was 1.94 ± 0.0094. Also, the “normalized RNA/DNA level with ligand (log10)” value in series [2] is 1.983 ± 0.0083.

In the case of CAAUGC, the “normalized RNA/DNA level without ligand (log10)” value in series [1] stood at 2.03 ± 0.027. For the same variant, in series [2], the “normalized RNA/DNA level with ligand (log10)” value is 2.023 ± 0.02.

With CAACGU, in series [1], the “normalized RNA/DNA level without ligand (log10)” value amounted to 2.024 ± 0.0058. The “normalized RNA/DNA level with ligand (log10)” value in series [2] turned out to be 2.037 ± 0.019.

(Values after the supplement of paper PMC6757056.)
